Data published in PMC10739154, “Reinvestigation of Disulfide-bonded Oligomeric Forms of the Unfolded Protein Response Transducer ATF6” (Cell Structure and Function, 2019).

Tests used:
[1] = target: C467A mutant of ATF6α(Δ244)-TAP (human); test: non-reducing SDS-PAGE with immunoblotting; ATF6α-TAP constructs of various lengths at the N-terminus in HCT116 DKO cells; lysates on non-reducing SDS-PAGE; blot with anti-Myc; shows disulfide-bonded forms
[2] = target: C618A mutant of ATF6α(Δ244)-TAP (human); test: as above
[3] = target: C467A mutant of ATF6α(Δ331)-TAP (human); test: as above
[4] = target: the molecule itself; test: non-reducing SDS-PAGE with immunoblotting; one form of ATF6α in the cells; lysis in 1% NP-40 buffer (50 mM Tris/HCl pH 7.5, 150 mM NaCl, 10 mM N-ethylmaleimide), boiled in SDS sample buffer without dithiothreitol; blot with anti-ATF6α; shows disulfide-bonded forms
[5] = target: the molecule itself; test: non-reducing SDS-PAGE with immunoblotting; ATF6α-TAP constructs of various lengths at the N-terminus in HCT116 DKO cells; lysates on non-reducing SDS-PAGE; blot with anti-Myc; shows disulfide-bonded forms

| Molecule | stoichiometry N [4] | further results |
| --- | --- | --- |
| C467A mutant of ATF6α(Δ244)-TAP (domain or fragment) | – | stoichiometry N [1]: 2 |
| C618A mutant of ATF6α(Δ244)-TAP (domain or fragment) | – | stoichiometry N [2]: 2 |
| C467A mutant of ATF6α(Δ331)-TAP (domain or fragment) | – | stoichiometry N [3]: 2 |
| ATF6α (endogenous, HCT116 cells) (natural protein, human (endogenous in HCT116), UniProt P18850 1-670, looked up, ATF6α, endogenous in human colorectal carcinoma-derived HCT116 cells; also called pATF6α(P); source: endogenous, HCT116 WT cell lysate) MGEPAGVAGTMESPFSPGLFHRLDEDWDSALFAELGYFTDTDELQLEAANETYENNFDNLDFDLDLMPWESDIWDINNQICTVKDIKAEPQPLSPASSSYSVSSPRSVDSYSSTQHVPEELDLSSSSQMSPLSLYGENSNSLSSAEPLKEDKPVTGPRNKTENGLTPKKKIQVNSKPSIQPKPLLLPAAPKTQTNSSVPAKTIIIQTVPTLMPLAKQQPIISLQPAPTKGQTVLLSQPTVVQLQAPGVLPSAQPVLAVAGGVTQLPNHVVNVVPAPSANSPVNGKLSVTKPVLQSTMRNVGSDIAVLRRQQRMIKNRESACQSRKKKKEYMLGLEARLKAALSENEQLKKENGTLKRQLDEVVSENQRLKVPSPKRRVVCVMIVLAFIILNYGPMSMLEQDSRRMNPSVSPANQRRHLLGFSAKEAQDTSDGIIQKNSYRYDHSVSNDKALMVLTEEPLLYIPPPPCQPLINTTESLRLNHELRGWVHRHEVERTKSRRMTNNQQKTRILQGALEQGSNSQLMAVQYTETTSSISRNSGSELQVYYASPRSYQDFFEAIRRRGDTFYVVSFRRDHLLLPATTHNKTTRPKMSIVLPAININENVINGQDYEVMMQIDCQVMDTRILHIKSSSVPPYLRDQQRNQTNTFFGSPPAATEATHVVSTIPESLQ | 2 | – |
| C467A mutant of ATF6α-TAP (natural protein, human, UniProt P18850 1-670, looked up, ATF6α, human, full length, C467A; also called ATF6α(C467A)-TAP; source: HCT116 ATF6α/β-DKO cells, transfected, in lysate) MGEPAGVAGTMESPFSPGLFHRLDEDWDSALFAELGYFTDTDELQLEAANETYENNFDNLDFDLDLMPWESDIWDINNQICTVKDIKAEPQPLSPASSSYSVSSPRSVDSYSSTQHVPEELDLSSSSQMSPLSLYGENSNSLSSAEPLKEDKPVTGPRNKTENGLTPKKKIQVNSKPSIQPKPLLLPAAPKTQTNSSVPAKTIIIQTVPTLMPLAKQQPIISLQPAPTKGQTVLLSQPTVVQLQAPGVLPSAQPVLAVAGGVTQLPNHVVNVVPAPSANSPVNGKLSVTKPVLQSTMRNVGSDIAVLRRQQRMIKNRESACQSRKKKKEYMLGLEARLKAALSENEQLKKENGTLKRQLDEVVSENQRLKVPSPKRRVVCVMIVLAFIILNYGPMSMLEQDSRRMNPSVSPANQRRHLLGFSAKEAQDTSDGIIQKNSYRYDHSVSNDKALMVLTEEPLLYIPPPPAQPLINTTESLRLNHELRGWVHRHEVERTKSRRMTNNQQKTRILQGALEQGSNSQLMAVQYTETTSSISRNSGSELQVYYASPRSYQDFFEAIRRRGDTFYVVSFRRDHLLLPATTHNKTTRPKMSIVLPAININENVINGQDYEVMMQIDCQVMDTRILHIKSSSVPPYLRDQQRNQTNTFFGSPPAATEATHVVSTIPESLQ | – | stoichiometry N [5]: 2 |
| HA-ATF6α(WT) (natural protein, human, UniProt P18850 1-670, looked up, ATF6α, human, full length; Plasmid from R. Prywes (Wang et al., 2000); also called HA-tagged WT; HA-tagged ATF6α WT; source: HCT116 ATF6α/β-DKO cells, transfected, in lysate; not shown: HA, N-terminal, kept) MGEPAGVAGTMESPFSPGLFHRLDEDWDSALFAELGYFTDTDELQLEAANETYENNFDNLDFDLDLMPWESDIWDINNQICTVKDIKAEPQPLSPASSSYSVSSPRSVDSYSSTQHVPEELDLSSSSQMSPLSLYGENSNSLSSAEPLKEDKPVTGPRNKTENGLTPKKKIQVNSKPSIQPKPLLLPAAPKTQTNSSVPAKTIIIQTVPTLMPLAKQQPIISLQPAPTKGQTVLLSQPTVVQLQAPGVLPSAQPVLAVAGGVTQLPNHVVNVVPAPSANSPVNGKLSVTKPVLQSTMRNVGSDIAVLRRQQRMIKNRESACQSRKKKKEYMLGLEARLKAALSENEQLKKENGTLKRQLDEVVSENQRLKVPSPKRRVVCVMIVLAFIILNYGPMSMLEQDSRRMNPSVSPANQRRHLLGFSAKEAQDTSDGIIQKNSYRYDHSVSNDKALMVLTEEPLLYIPPPPCQPLINTTESLRLNHELRGWVHRHEVERTKSRRMTNNQQKTRILQGALEQGSNSQLMAVQYTETTSSISRNSGSELQVYYASPRSYQDFFEAIRRRGDTFYVVSFRRDHLLLPATTHNKTTRPKMSIVLPAININENVINGQDYEVMMQIDCQVMDTRILHIKSSSVPPYLRDQQRNQTNTFFGSPPAATEATHVVSTIPESLQ | 2 | – |
| EGFP-ATF6α(WT) (natural protein, human, UniProt P18850 1-670, looked up, ATF6α, human, tagged with EGFP at the N-terminus; Constructed in previous studies (Nadanaka et al., 2007; 2004); source: HCT116 ATF6α/β-DKO cells, transfected, in lysate; not shown: EGFP, N-terminal, kept) MGEPAGVAGTMESPFSPGLFHRLDEDWDSALFAELGYFTDTDELQLEAANETYENNFDNLDFDLDLMPWESDIWDINNQICTVKDIKAEPQPLSPASSSYSVSSPRSVDSYSSTQHVPEELDLSSSSQMSPLSLYGENSNSLSSAEPLKEDKPVTGPRNKTENGLTPKKKIQVNSKPSIQPKPLLLPAAPKTQTNSSVPAKTIIIQTVPTLMPLAKQQPIISLQPAPTKGQTVLLSQPTVVQLQAPGVLPSAQPVLAVAGGVTQLPNHVVNVVPAPSANSPVNGKLSVTKPVLQSTMRNVGSDIAVLRRQQRMIKNRESACQSRKKKKEYMLGLEARLKAALSENEQLKKENGTLKRQLDEVVSENQRLKVPSPKRRVVCVMIVLAFIILNYGPMSMLEQDSRRMNPSVSPANQRRHLLGFSAKEAQDTSDGIIQKNSYRYDHSVSNDKALMVLTEEPLLYIPPPPCQPLINTTESLRLNHELRGWVHRHEVERTKSRRMTNNQQKTRILQGALEQGSNSQLMAVQYTETTSSISRNSGSELQVYYASPRSYQDFFEAIRRRGDTFYVVSFRRDHLLLPATTHNKTTRPKMSIVLPAININENVINGQDYEVMMQIDCQVMDTRILHIKSSSVPPYLRDQQRNQTNTFFGSPPAATEATHVVSTIPESLQ | 2 | – |
| C618A mutant of ATF6α-TAP (natural protein, human, UniProt P18850 1-670, looked up, ATF6α, human, full length, C618A; also called ATF6α(C618A)-TAP; source: HCT116 ATF6α/β-DKO cells, transfected, in lysate) MGEPAGVAGTMESPFSPGLFHRLDEDWDSALFAELGYFTDTDELQLEAANETYENNFDNLDFDLDLMPWESDIWDINNQICTVKDIKAEPQPLSPASSSYSVSSPRSVDSYSSTQHVPEELDLSSSSQMSPLSLYGENSNSLSSAEPLKEDKPVTGPRNKTENGLTPKKKIQVNSKPSIQPKPLLLPAAPKTQTNSSVPAKTIIIQTVPTLMPLAKQQPIISLQPAPTKGQTVLLSQPTVVQLQAPGVLPSAQPVLAVAGGVTQLPNHVVNVVPAPSANSPVNGKLSVTKPVLQSTMRNVGSDIAVLRRQQRMIKNRESACQSRKKKKEYMLGLEARLKAALSENEQLKKENGTLKRQLDEVVSENQRLKVPSPKRRVVCVMIVLAFIILNYGPMSMLEQDSRRMNPSVSPANQRRHLLGFSAKEAQDTSDGIIQKNSYRYDHSVSNDKALMVLTEEPLLYIPPPPCQPLINTTESLRLNHELRGWVHRHEVERTKSRRMTNNQQKTRILQGALEQGSNSQLMAVQYTETTSSISRNSGSELQVYYASPRSYQDFFEAIRRRGDTFYVVSFRRDHLLLPATTHNKTTRPKMSIVLPAININENVINGQDYEVMMQIDAQVMDTRILHIKSSSVPPYLRDQQRNQTNTFFGSPPAATEATHVVSTIPESLQ | – | stoichiometry N [5]: 2 |
| HA-ATF6α(C467A) (natural protein, human, UniProt P18850 1-670, looked up, ATF6α, human, full length, C467A; Constructed in previous studies (Nadanaka et al., 2007; 2004); also called HA-tagged C467A mutant; source: HCT116 ATF6α/β-DKO cells, transfected, in lysate; not shown: HA, N-terminal, kept) MGEPAGVAGTMESPFSPGLFHRLDEDWDSALFAELGYFTDTDELQLEAANETYENNFDNLDFDLDLMPWESDIWDINNQICTVKDIKAEPQPLSPASSSYSVSSPRSVDSYSSTQHVPEELDLSSSSQMSPLSLYGENSNSLSSAEPLKEDKPVTGPRNKTENGLTPKKKIQVNSKPSIQPKPLLLPAAPKTQTNSSVPAKTIIIQTVPTLMPLAKQQPIISLQPAPTKGQTVLLSQPTVVQLQAPGVLPSAQPVLAVAGGVTQLPNHVVNVVPAPSANSPVNGKLSVTKPVLQSTMRNVGSDIAVLRRQQRMIKNRESACQSRKKKKEYMLGLEARLKAALSENEQLKKENGTLKRQLDEVVSENQRLKVPSPKRRVVCVMIVLAFIILNYGPMSMLEQDSRRMNPSVSPANQRRHLLGFSAKEAQDTSDGIIQKNSYRYDHSVSNDKALMVLTEEPLLYIPPPPAQPLINTTESLRLNHELRGWVHRHEVERTKSRRMTNNQQKTRILQGALEQGSNSQLMAVQYTETTSSISRNSGSELQVYYASPRSYQDFFEAIRRRGDTFYVVSFRRDHLLLPATTHNKTTRPKMSIVLPAININENVINGQDYEVMMQIDCQVMDTRILHIKSSSVPPYLRDQQRNQTNTFFGSPPAATEATHVVSTIPESLQ | 2 | – |
| EGFP-ATF6α(C467A) (natural protein, human, UniProt P18850 1-670, looked up, ATF6α, human, C467A, tagged with EGFP at the N-terminus; Constructed in previous studies (Nadanaka et al., 2007; 2004); source: HCT116 ATF6α/β-DKO cells, transfected, in lysate; not shown: EGFP, N-terminal, kept) MGEPAGVAGTMESPFSPGLFHRLDEDWDSALFAELGYFTDTDELQLEAANETYENNFDNLDFDLDLMPWESDIWDINNQICTVKDIKAEPQPLSPASSSYSVSSPRSVDSYSSTQHVPEELDLSSSSQMSPLSLYGENSNSLSSAEPLKEDKPVTGPRNKTENGLTPKKKIQVNSKPSIQPKPLLLPAAPKTQTNSSVPAKTIIIQTVPTLMPLAKQQPIISLQPAPTKGQTVLLSQPTVVQLQAPGVLPSAQPVLAVAGGVTQLPNHVVNVVPAPSANSPVNGKLSVTKPVLQSTMRNVGSDIAVLRRQQRMIKNRESACQSRKKKKEYMLGLEARLKAALSENEQLKKENGTLKRQLDEVVSENQRLKVPSPKRRVVCVMIVLAFIILNYGPMSMLEQDSRRMNPSVSPANQRRHLLGFSAKEAQDTSDGIIQKNSYRYDHSVSNDKALMVLTEEPLLYIPPPPAQPLINTTESLRLNHELRGWVHRHEVERTKSRRMTNNQQKTRILQGALEQGSNSQLMAVQYTETTSSISRNSGSELQVYYASPRSYQDFFEAIRRRGDTFYVVSFRRDHLLLPATTHNKTTRPKMSIVLPAININENVINGQDYEVMMQIDCQVMDTRILHIKSSSVPPYLRDQQRNQTNTFFGSPPAATEATHVVSTIPESLQ | 2 | – |
| EGFP-ATF6α(C618A) (natural protein, human, UniProt P18850 1-670, looked up, ATF6α, human, C618A, tagged with EGFP at the N-terminus; Constructed in previous studies (Nadanaka et al., 2007; 2004); source: HCT116 ATF6α/β-DKO cells, transfected, in lysate; not shown: EGFP, N-terminal, kept) MGEPAGVAGTMESPFSPGLFHRLDEDWDSALFAELGYFTDTDELQLEAANETYENNFDNLDFDLDLMPWESDIWDINNQICTVKDIKAEPQPLSPASSSYSVSSPRSVDSYSSTQHVPEELDLSSSSQMSPLSLYGENSNSLSSAEPLKEDKPVTGPRNKTENGLTPKKKIQVNSKPSIQPKPLLLPAAPKTQTNSSVPAKTIIIQTVPTLMPLAKQQPIISLQPAPTKGQTVLLSQPTVVQLQAPGVLPSAQPVLAVAGGVTQLPNHVVNVVPAPSANSPVNGKLSVTKPVLQSTMRNVGSDIAVLRRQQRMIKNRESACQSRKKKKEYMLGLEARLKAALSENEQLKKENGTLKRQLDEVVSENQRLKVPSPKRRVVCVMIVLAFIILNYGPMSMLEQDSRRMNPSVSPANQRRHLLGFSAKEAQDTSDGIIQKNSYRYDHSVSNDKALMVLTEEPLLYIPPPPCQPLINTTESLRLNHELRGWVHRHEVERTKSRRMTNNQQKTRILQGALEQGSNSQLMAVQYTETTSSISRNSGSELQVYYASPRSYQDFFEAIRRRGDTFYVVSFRRDHLLLPATTHNKTTRPKMSIVLPAININENVINGQDYEVMMQIDAQVMDTRILHIKSSSVPPYLRDQQRNQTNTFFGSPPAATEATHVVSTIPESLQ | 2 | – |
